Read-outs that look alike come from different tables or passages of the source. Blank lines part the entries; values can stand above or below the molecule they belong to.
Assays:
Experiment in all cases: cell-based or functional assay
[1] = molecular target: chimeric VEGFR1 receptors on HEK293/D9/Flt-IL18Rα/Flt-IL18Rβ clone V3H9 cells (UniProt P17948)
[2] = molecular target: chimeric VEGFR1 receptors on HEK293/D9/Flt-IL18Rα/Flt-IL18Rβ clone V3H9 cells (UniProt P17948); remark: listed apart in the source
[3] = molecular target: chimeric VEGFR1 receptors on HEK293/D9/Flt-IL18Rα/Flt-IL18Rβ clone V3H9 cells (UniProt P17948); remark: listed apart in the source
[4] = molecular target: VEGF121 (hVEGF121, aa 207-327) (human), P15692
[5] = molecular target: T1, chimeric VEGFR1 receptors on HEK293/D9/Flt-IL18Rα/Flt-IL18Rβ clone V3H9 cells (UniProt P17948 27-758; Q13478 351-541; P17948 27-758; O95256 378-599, limits assumed)
T1 sequence (P17948 other isoform, or with tags, fused parts or gaps mutant limits assumed, chain 1 of 2): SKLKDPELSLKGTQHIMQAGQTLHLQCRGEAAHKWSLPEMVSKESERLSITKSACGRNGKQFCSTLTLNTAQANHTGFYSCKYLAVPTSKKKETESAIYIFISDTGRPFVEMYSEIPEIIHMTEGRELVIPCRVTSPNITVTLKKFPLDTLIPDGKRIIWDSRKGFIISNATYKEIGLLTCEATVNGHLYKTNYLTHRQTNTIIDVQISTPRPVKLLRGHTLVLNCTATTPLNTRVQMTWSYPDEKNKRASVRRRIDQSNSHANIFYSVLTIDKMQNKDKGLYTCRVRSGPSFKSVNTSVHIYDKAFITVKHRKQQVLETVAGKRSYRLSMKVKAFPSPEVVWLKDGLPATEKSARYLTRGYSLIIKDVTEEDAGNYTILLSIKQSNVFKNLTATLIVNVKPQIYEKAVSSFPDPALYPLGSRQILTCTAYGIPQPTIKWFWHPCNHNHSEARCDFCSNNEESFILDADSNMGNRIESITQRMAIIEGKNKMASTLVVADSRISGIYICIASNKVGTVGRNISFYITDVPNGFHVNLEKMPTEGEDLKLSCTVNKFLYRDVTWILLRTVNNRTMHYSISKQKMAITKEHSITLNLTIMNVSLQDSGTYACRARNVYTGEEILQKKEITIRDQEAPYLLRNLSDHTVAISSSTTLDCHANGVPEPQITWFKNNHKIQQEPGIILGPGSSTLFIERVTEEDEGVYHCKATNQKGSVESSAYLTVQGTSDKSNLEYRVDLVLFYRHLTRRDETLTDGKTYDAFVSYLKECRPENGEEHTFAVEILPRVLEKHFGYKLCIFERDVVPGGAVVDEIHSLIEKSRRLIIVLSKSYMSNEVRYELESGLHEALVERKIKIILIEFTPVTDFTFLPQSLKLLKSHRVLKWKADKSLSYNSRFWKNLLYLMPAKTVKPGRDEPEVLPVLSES
T1 sequence (P17948 other isoform, or with tags, fused parts or gaps mutant limits assumed, chain 2 of 2): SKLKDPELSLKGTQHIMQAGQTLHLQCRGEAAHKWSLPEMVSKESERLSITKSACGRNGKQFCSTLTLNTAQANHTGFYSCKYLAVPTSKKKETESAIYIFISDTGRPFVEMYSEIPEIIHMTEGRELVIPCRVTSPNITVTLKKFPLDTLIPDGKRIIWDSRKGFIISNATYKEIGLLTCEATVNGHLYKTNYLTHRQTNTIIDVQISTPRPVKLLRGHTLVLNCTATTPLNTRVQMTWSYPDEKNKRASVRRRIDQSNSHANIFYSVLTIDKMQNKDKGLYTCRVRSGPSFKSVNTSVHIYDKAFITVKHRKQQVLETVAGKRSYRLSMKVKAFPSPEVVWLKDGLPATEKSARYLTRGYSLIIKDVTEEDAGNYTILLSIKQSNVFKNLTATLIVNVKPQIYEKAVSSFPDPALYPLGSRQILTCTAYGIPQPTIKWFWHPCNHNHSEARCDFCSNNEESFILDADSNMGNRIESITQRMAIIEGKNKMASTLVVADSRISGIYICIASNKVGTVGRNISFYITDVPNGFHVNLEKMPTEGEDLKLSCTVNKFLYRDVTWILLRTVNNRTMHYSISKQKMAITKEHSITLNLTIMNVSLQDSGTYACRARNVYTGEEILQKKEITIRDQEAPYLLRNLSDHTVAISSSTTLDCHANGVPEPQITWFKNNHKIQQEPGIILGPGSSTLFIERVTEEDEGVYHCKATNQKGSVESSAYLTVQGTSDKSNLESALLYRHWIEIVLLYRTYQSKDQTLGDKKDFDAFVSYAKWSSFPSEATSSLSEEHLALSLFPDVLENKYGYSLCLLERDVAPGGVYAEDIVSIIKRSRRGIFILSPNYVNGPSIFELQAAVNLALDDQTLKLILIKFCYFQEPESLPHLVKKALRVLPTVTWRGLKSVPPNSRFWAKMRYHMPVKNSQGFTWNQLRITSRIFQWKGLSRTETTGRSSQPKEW

[6] = molecular target: T1, chimeric VEGFR1 receptors on …; remark: listed apart in the source
[7] = molecular target: T1, chimeric VEGFR1 receptors on …; remark: listed apart in the source

chimeric VEGFR1 receptors on HEK293/D9/Flt-IL18Rα/Flt-IL18Rβ clone V3H9 cells (UniProt P17948), sequence (P17948 other isoform, or with tags, fused parts or gaps mutant limits assumed, chain 1 of 2): as the sequence (P17948 other isoform, or with tags, fused parts or gaps mutant limits assumed, chain 1 of 2) above
chimeric VEGFR1 receptors on HEK293/D9/Flt-IL18Rα/Flt-IL18Rβ clone V3H9 cells (UniProt P17948), sequence (P17948 other isoform, or with tags, fused parts or gaps mutant limits assumed, chain 2 of 2): as the sequence (P17948 other isoform, or with tags, fused parts or gaps mutant limits assumed, chain 2 of 2) above

B2: REGN7483^R (homodimer mini-trap, recombinant) (receptor)
chain: SDTGRPFVEMYSEIPEIIHMTEGRELVIPCRVTSPNITVTLKKFPLDTLIPDGKRIIWDSRKGFIISNATYKEIGLLTCEATVNGHLYKTNYLTHRQTNTIIDVVLSPSHGIELSVGEKLVLNCTARTELNVGIDFNWEYPSSKHQHKKLVNRDLKTQSGSEMKKFLSTLTIDGVTRSDQGLYTCAASSGLMTKKNSTFVRVHEKDKTHTCPPCPAPELLG
modifications: here or on the partner: N-linked glycans at N36, N68, N123, N196 (Table C)
IC50 (M), inhibition of VEGFR1 signaling (luciferase), 20 pM VEGF121 [4]: 8.79e-12 M

B3: VEGF121 (hVEGF121, aa 207-327) (ligand)
chain: APMAEGGGQNHHEVVKFMDVYQRSYCHPIETLVDIFQEYPDEIEYIFKPSCVPLMRCGGCCNDEGLECVPTEESNITMQIMRIKPHQGQHIGEMSFLQHNKCECRPKKDRARQEKCDKPRR
EC50 (M), activation of HEK293/D9/Flt-IL18Ra/Flt-IL18Rb (luciferase) [5]: 2.56e-11 M
EC50 (M), activation of HEK293/D9/Flt-IL18Ra/Flt-IL18Rb (luciferase) [6]: 4.4e-11 M
EC50 (M), activation of HEK293/D9/Flt-IL18Ra/Flt-IL18Rb (luciferase) [7]: 2.12e-11 M

Next, values leading:

EC50 (M), activation of HEK293/D9/Flt-IL18Ra/Flt-IL18Rb (luciferase) [1]: 2.4e-11 M
EC50 (M), activation of HEK293/D9/Flt-IL18Ra/Flt-IL18Rb (luciferase) [2]: 1.14e-11 M
EC50 (M), activation of HEK293/D9/Flt-IL18Ra/Flt-IL18Rb (luciferase) [3]: 1.51e-11 M
Molecule: VEGF110 (hVEGF110, aa 207-318) (from UniProt P15692 207-318) (ligand)

IC50 (M), inhibition of VEGFR1 signaling (luciferase), 20 pM VEGF121 [4]: 9.27e-12 M
B1: REGN7483^F (homodimer mini-trap, FabRICATOR cleaved from aflibercept) (receptor)
chain: SDTGRPFVEMYSEIPEIIHMTEGRELVIPCRVTSPNITVTLKKFPLDTLIPDGKRIIWDSRKGFIISNATYKEIGLLTCEATVNGHLYKTNYLTHRQTNTIIDVVLSPSHGIELSVGEKLVLNCTARTELNVGIDFNWEYPSSKHQHKKLVNRDLKTQSGSEMKKFLSTLTIDGVTRSDQGLYTCAASSGLMTKKNSTFVRVHEKDKTHTCPPCPAPELLG
modifications: here or on the partner: N-linked glycans at N36, N68, N123, N196 (Table C)

Reference: patent publication US20230063116A1 (Regeneron, published 2023)
